From the DeepSol protein solubility set

Assay: soluble on expression in E. coli; label from the status in PepcDB or PDB records

| Sequence | soluble on expression in E. coli |
| --- | --- |
| MGLRFPPKVLEHILSFIDSNEDRNSVSLVCKSWFETERKTRKRVFVGNCYAVSPAAVTRRFPEMRSLTLKGKPHFADYNLVPDGWGGYAWPWIEAMAAKSSSLEEIRMKRMVVTDECLEKIAASFKDFKVLVLTSCEGFSTDGIAAIAATCRNLRVLELRECIVEDLGGDWLSYFPESSTSLVSLDFSCLDSEVKISDLERLVSRSPNLKSLKLNPAVTLDGLVSLLRCAPQLTELGTGSFAAQLKPEAFSKLSEAFSNCKQLQSLSGLWDVLPEYLPALYSVCPGLTSLNLSYATVRMPDLVELLRRCSKLQKLWVMDLIEDKGLEAVASYCKELRELRVFPSEPDLDATNIPLTEQGLVFVSKGCRKLESVLYFCVQFTNAALFTIARKRPNLKCFRLCVIEPFAPDYKTNEPLDKGFKAIAEGCRDLRRLSVSGLLSDKAFKYIGKHAKKVRMLSIAFAGDSDLMLHHLLSGCESLKKLEIRDCPFGDTALLEHAAKLETMRSLWMSSCFVSFGACKLLSQKMPRLNVEVIDEHPPESRPESSPVERIYIYRTVAGPRMDTPEFVWTIHKNPENGVSHLAIK | not soluble |
| MGNCESRELVAQAKQNKIINTELDKAKKTDENIIKLLLLGAGESGKSTVLKQMKIIHNSGFSQEEISNKRNVVCANTVQAMGALLDGMKQLQFDFSTRVCNAHEKLIRETLNDKAEYGPFSDAMFNALTELWADKGVQCAYDKREFFYLHDSAKYFFDAIARVHTPNYVPTENDILHTRVPTMGVIEVNFTIKGKFFRVFDVGGQRSQRKKWIHCFDDAKAMIYVASLSEYDQVLLEDNTTNRMHESIQLFKQVINNKYFVNTSVILFLNKIDLFEEKIVTKKRSLGIAFESFSGPSQDLNAAVAFVEKKYRSMAENKEKNIYCHHTCATDTQQVQYVLDAVLDTILSTKLKGCGLY | not soluble |
| MGNFYSLGKKEPVIRLLQITDCHLFSSESECLLGINTTETFQAVIEHIHQTDFAYDAVLATGDLIQDHNPEAYHRFAEMAKQFVKPLFWLEGNHDKQPQMSLYLGKHPHIQPEKQLLAGEKWQILLLNSQVAGAPSGYLSAGQLAWLNSKLAKHLDRYALVVLHHNILPTNSAWLDQHCLKNSEQLAKVLKSYRNVKAILHGHIHQEVDRVWQGYRVLATPSTCIQFKPNCRDFTLDMLPQGWREISLLEDGSIETTVKRLASNQFLPDFQSKGY | not soluble |
| MGNGGILCALKTDSCSMLVISNNVHLPDAEIELTAIRAQGAGGQNVNKVSSAVHLRFDIPASSLPPFYKERLLALRDSRITSDGVIILKAQQYRTQEQNRADALERLTELILSAIKVEKKRRPTKPTLGSKKRRLETKAKRGSIKAGRGKVDFLEHHHHHH | soluble |
| MGNINSLFTTNPSEILPVEVYLNDLSCDAVENLGSTRFMKVARGRTHEGVFVYKVFVRQDLASLDPFPQRIIDIRKALMKSPNCCPIKKVLVKQKYAVMVRAFQKHTLFDRLSTRPFVVEAEKMWYIFLLFKALSQCETAGVCHGDLKSQNVLISSTNWLQITDFAPFKPCFLTHDNPSSFTFFFDTSRRQSCYIAPERFISATEYDEKLRDGQDEWLFGSLTPKMDMFSAGCIVFELLCDRPPFTYSSLCEYRSMNDADAGNMLLRLIQDVPAPYRPLLRLLLNRDPSFRISANAVLTGAALKFPHILESFLFKYLDRFRPLYGTSTSSDPSTDDFSQALEFSYLEPDDVITKLKREKQLWWARLSENDESKSFAFLFVSLITANLRALRTIQGKTDAIRMLVELSTISDSSVAIDRILPYFVHLWMDPETQVRATAVTAVAELLAPIQPKTYEESLVFVDYLFPHLNSMSNDSIDSPQHVLFAIATSLGQFADTAYRFYMAGREIRQATMYDDEVSTAGEQQQNDDAGALLHGVSAMFSALCSKEPMVKRCLVESKSLILLYHFFIKIGNDDTLLRFLCTFLNAKTEWRLRAAFFDSLPVCVQKRSEGMVPLLQLGLQDGEEHVVVRALGCIHILIKNENLDKMSVKKLLDDVLPFLVHPNDWIRSTVCDILLAIDCQWHNAEVHVKLIPLVSPFVEESKRGVLTLKSKPVLMSQLVDPIPRTTFNQIIDQSLENTKQITMLLEIHFQTGKPFEAGAGWFNTIFPKIKTETKAGVVEHNDLKAALEARKRLTASVYSFRKLFERMAETRNTAGMEIYLTRQLGTIDLSSIAHSRVRRKEFTYGGDESAMSSNSKHLTAINIPNHSTERRDTLLLAGEVVIEEERTVTNTPAPYSPVKNTTFDNQVNEMLAHLNELHMRNVNCRPKRPLAASASHPVLSASPSAGSLGSSSNNNVKGIIITHLHEHSGKITKLCANRESDLFLSGSTDGTVKVWKTRSVLGEGYGSARSEDTWIPTETSREKVNSVGWNDQFACSATNDGFVRWADVGQGSARVATQVRIPDAEGPPVYLHCNGPMAIVRTHHGVLYGIDLRVGASEGPLKRHDIWRKKFQESHGLVTSSAIDPWQQSWMVIGNNSGQKNLVLYDLRFKEEVLRWESPHQNTQPNRVWANPVSRQECPEVFVGFSMHGEISTYELSAQPLRKRVFWTGGAPILSYSAASNDARKQDSLATRSLCVCEKTGVVYTGDTRGAIRKWNPTRAVGCEIISAPPKGRTAYRTIFEENDTSTAPSGASTDPFVIYERTVLDTEAKENQKVVPLDSKPSTYHRTPITDMMLLNSELLVSSGYDGVIKIWK | not soluble |
| MGNRIPDEIVDQVQKSADIVEVIGDYVQLKKQGRNYFGLCPFHGESTPSFSVSPDKQIFHCFGCGAGGNVFSFLRQMEGYSFAESVSHLADKYQIDFPDDITVHSGARPESSGEQKMAEAHELLKKFYHHLLINTKEGQEALDYLLSRGFTKELINEFQIGYALDSWDFITKFLVKRGFSEAQMEKAGLLIRREDGSGYFDRFRNRVMFPIHDHHGAVVAFSGRALGSQQPKYMNSPETPLFHKSKLLYNFYKARLHIRKQERAVLFEGFADVYTAVSSDVKESIATMGTSLTDDHVKILRRNVEEIILCYDSDKAGYEATLKASELLQKKGCKVRVAMIPDGLDPDDYIKKFGGEKFKNDIIDASVTVMAFKMQYFRKGKNLSDEGDRLAYIKDVLKEISTLSGSLEQEVYVKQLASEFSLSQESLTEQLSVFSKQNKPADNSGETKTRRAHLTTKARQKRLRPAYENAERLLLAHMLRDRSVIKKVIDRVGFQFNIDEHRALAAYLYAFYEEGAELTPQHLMARVTDDHISQLLSDILMLQVNQELSEAELSDYVKKVLNQRNWSMIKEKEAERAEAERQKDFLRAASLAQEIVTLNRS | not soluble |
| MGNSSSLMLRDEEIEEIMSETEFNRNQIVRLYSRFLSLDKKGQGFLSRDDFLNVPELAVNPLGDRIVDAFFTLASSNGDNEEQQLNFRQFVRILAHFQPISRVKKNALNSRKDKLLFAFKMYDLNKNDYITREEFKVILNSMVGANITSDQLDKIADRTIEEADADRDGKISFDEFCRAMEKTDIEEKMSIRFLN | soluble |
| MGNVMLSKRKSGSMADDTGEHPVCFNCTLRVDQTIHVKCFECPLRICILCFQCGAESPPHRRGHNYELVKPTSNPEAMSWTHEDEFELLKAAHKFKMGNWGEIAESIGRGRKDGHNCKDYFEKHFVRGWIGQFSIKSSSWDRIKYGMYINQTLDSVLQKNCLESTERMLLIRDAVRASGESWDENDPKLAIKVQQVLEQYVQKVIDGDIETKYERPKFLTNQYETELSPDDCDPDNERDMKSKRSVKQEINTDDSDNDNSPGPSSSCRKKGPPSPKRRKTTRVMRESSSDSDDDKSQASDKDTYHGMERETEEEDPPSAFETAQEFDTEDEEEEKKPKRGTASSSKRRKRRRMWVSKKDRRLHEFRKKMNQEVKELRSAYPRLLHESGVSKSETRPKMRRSDELKILGYNNEREELECEWFNEAEQLISRLTISATEPQKDQRLDMENDIKFARLRHYVRLLGIRKAKRNTVLEHDKINEFMKFYQEACYAAAKRPVSQQEIMDSRTEKEKLLAMTQQFLTRDEYRSLRASIERIDNVVERIEVLQDLQKNGETTLKNAPVERKSKKKMRKIDCEQKKKIATEWSKFKKWHTEGWE | not soluble |
| MGPAPRILELFYDVLSPYSWLGFEVLCRYQHLWNIKLQLRPTLIAGIMKDSGNQPPAMVPRKGQYIFKEIPLLKQFFQVPLNIPKDFFGETVKKGSINAMRFLTTVSMEQPEMLEKVSREIWMRVWSRDEDITEYQSILAAAVKAGMSTAQAQHFLEKISTQQVKNKLIENTDAACKYGAFGLPTTVAHVDGKTYMLFGSDRLELLAYLLGEKWMGPVPPTANARL | soluble |
| MGPAPRVLELFYDVLSPYSWLGFEVLCRYQHLWNIKLKLRPALLAGIMKDSGNQPPAMVPHKGQYILKEIPLLKQLFQVPMSVPKDFFGEHVKKGTVNAMRFLTAVSMEQPEMLEKVSRELWMRIWSRDEDITESQNILSAAEKAGMATAQAQHLLNKISTELVKSKLRETTGAACKYGAFGLPTTVAHVDGKTYMLFGSDRMELLAYLLGEKWMGPVPPTLNARL | soluble |
| MGPVRFAPSILTADLARLGEAIREAEAAGVDWIHLDVMDGVFVPNLTFGPLLVEAVRRVTSLPLDVHLMIVKPERYLEDFAQAGADHITVHFEATYHPHRAVQKVKELGKKAGLAVNPGTPLEAFEPLLPDLDLALLMSVNPGFGGQRYLPTATERLRRLKAMRDRLNPACLIVVDGGINRDTVAEARRAGADVAVAGSALFNDKPVAENLKALRLALLG | soluble |
| MGQFYCLHCDRYFSNVSVRDDHFKTKKHKKRVNMMMGQAPHSQLDADLAGGMGMPDNGPKLMSNLVFTELRKPETEDLPGMGQFNCLLCHRNFSNASVMDYHFKTKKHKKRVKKIERPAPHSQLDADLAGGMGMPDNGPKLMSA | not soluble |
| MGQIQYSEKYFDDTFEYRHVVLPPEVAKLLPKNRLLSENEWRAIGVQQSRGWVHYAVHRPEPHIMLFRRPLNYQQQQENQAQNMLVK | soluble |
| MGRDSPRDRRHRDRSPERRRRSRSRSRDRQTRRDTRRDDSPKIKREVKEEQFSDNDSPRRRRDDRGGRRDDRRDNRRDDRRDHRDDRGDRDRRDNFRRPDPVREDGKQYGLEKKEENWGKPEEPAKEKEKVNLGTSGALTEDTNTFRGVVIKYNEPPEAKKPNARWRLYPFKGEESLQVLYIHRQSAYLIGRDHKIADIPVDHPSCSKQHAVLQFRSMPFTRDDGTKARRIMPYIIDLGSGNGTFLNEKKIEPQRYIELQEKDMLKFGFSTREYVVMKEREITEEELAEGEDVKKEESD | not soluble |
| MGRLSEVFEVRERYVPQIGRPSYLLVSLPDAGLVGSISGEFLINYLNLREYGEIYSNKHLPPISHVVNGVAKSPIRLYHYDNFLLLHSWIAIPANSINHLANLVVSYAEKYGIQTIISITGVPVPNRLDLEKPTPYWVASSEDFAKELDSLNLMKKFVEGYVSGPYAPILFQSAKKLIRNLLIVVESFLDLPDPEAAAVALDILSKMLGFKVDTSSLLKEAEEIRERIKGLMQQTRQELPNYSGLRPSTYA | not soluble |
| MGRMHNPGKGMAKSAIPYRRSVPSWQKMTAEEVQDQIVKMAKKGLRPSQIGVILRDSHGVGQVRRLAGNKIFRILKSKGMAPELPEDLYHLVKKAVAIRKHLERSRKDIDSKYRLILVESRIHRLARYYKTKRQLPPTWKYESGTAASLVS | soluble |
| MGRSADSFDRALWWGASDEPALAAPPLRGTTDTDVAIVGGGFTGLVTALHLAEAGLAPLVLEARHVGFGASGRNGGQVIPGLKYDPEALLQKFGPDRGRALIDLVGGAADGVFDLIERHRIRCAPRRAGWIQAAHSERALPAVLNRARQWQERGVGVSILSRDEIAARTGTSLYHGGWHDPRAGGLNPLAYARGLGRAAIAAGAHLFEESPALSLIRKGAGWEIRTPEGLVRANRVLIATNAYGEGLLPGLAQSILPVQSMLVATAPLPEDLRARLMPGGVVLSETRKLAFYMRQSDDGRLVLGGRGAVGPMEDGRLMAALEAGLARIFPEAARFGIAQRWSGQLALTLDGLPHLHAPEPGLQVLLGYNGRGIALATALGRMVANHLASGEEPVFPVTPIRPLAWHRLREPVMNAGIRWYWLKDRMGFASLEHHHHHH | not soluble |
